# Target: Chicken egg white-derived lysozyme (Sigma-Aldrich) (chicken) (UniProt P00698)
# Test: SPR, Biacore T200; antigen immobilized, antibody as analyte, as in Example 1
# Chain of Chicken egg white-derived lysozyme (Sigma-Aldrich) (chicken) (P00698 19-147): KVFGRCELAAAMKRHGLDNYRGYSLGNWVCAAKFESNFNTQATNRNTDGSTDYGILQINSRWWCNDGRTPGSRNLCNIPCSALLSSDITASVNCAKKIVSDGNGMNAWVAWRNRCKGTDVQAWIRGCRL
substance,measurement,value
Wild-type mouse anti-lysozyme antibody of clone Hy-HEL5,Kd,0.177 nM

# Source: patent US20210230307A1
